From patent publication US20220162341A1 (published 2022) come the findings set out here.

For test [1], the target named is T1, ASPH (aspartyl (asparaginyl) β-hydroxylase) (Homo sapiens (Human)) (UniProt Q12797).
T1 sequence: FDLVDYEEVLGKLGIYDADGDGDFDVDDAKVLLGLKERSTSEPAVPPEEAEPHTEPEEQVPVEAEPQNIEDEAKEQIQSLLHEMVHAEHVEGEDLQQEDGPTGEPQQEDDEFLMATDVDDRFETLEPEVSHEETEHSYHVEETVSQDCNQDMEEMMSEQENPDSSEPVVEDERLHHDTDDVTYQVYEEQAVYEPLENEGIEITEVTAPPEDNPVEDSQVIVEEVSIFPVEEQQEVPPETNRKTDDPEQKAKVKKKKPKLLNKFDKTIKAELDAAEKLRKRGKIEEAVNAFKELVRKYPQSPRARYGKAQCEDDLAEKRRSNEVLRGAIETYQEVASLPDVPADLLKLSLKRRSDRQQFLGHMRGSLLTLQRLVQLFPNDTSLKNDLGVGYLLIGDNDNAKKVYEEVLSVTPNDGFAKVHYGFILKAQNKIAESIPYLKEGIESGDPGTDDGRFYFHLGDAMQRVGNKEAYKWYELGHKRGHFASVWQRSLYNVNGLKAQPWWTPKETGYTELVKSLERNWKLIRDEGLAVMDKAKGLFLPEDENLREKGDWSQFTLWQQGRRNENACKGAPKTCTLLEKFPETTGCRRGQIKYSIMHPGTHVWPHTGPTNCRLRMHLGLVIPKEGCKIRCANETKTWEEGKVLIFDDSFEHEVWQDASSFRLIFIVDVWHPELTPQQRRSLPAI
Kind of test: SPR (SensiQ Pioneer), antibody captured via Protein G, ASPH as analyte.

The target in test [2] is T2, ASPH (aspartyl (asparaginyl) β-hydroxylase) (Homo sapiens (Human), UniProt Q12797 75-758, limits assumed).
T2 construct: The antibodies were raised against a peptide of human ASPH; also called the ASPH protein
T2 sequence: T1 sequence
Described as above.

B1: 5H4/5K3 (antibody, V domains shown)
VH: QSLEESGGDLVKPGASLTLTCKASGFDFSSNAMCWVRQAPGKGPEWIACIDNGDGSTDYATWAKGRFTISKTSSTTVTLQMTSLTAADTATYFCTRNFNLWGQGTLVTVSS
VL: AQVLTQTASSVSAAVGGTVTISCQSSQSVYDNNRLAWFQQKPGQPPKLLIYETSKLASGVPLRFKGSGSGTQFTLTISDLECDDAATYYCLGSYSGYIYTFGGGTEVVVKG
In test [1], B1 registered a Kd of 144 nM, a koff of 0.00243 s⁻¹ and a kon of 16800 M⁻¹ s⁻¹.

B2: 5H1/5K1 (antibody, V domains shown)
VH: B1 VH
VL: AQVLTQTASSVSAAVGGTVTISCQSSQSVYDNNRLAWFQQKPGQPPKLLIYETSKLASGVPLRFKGSGSGTQFTLTISDLECDDAATYYCLGSYSGYIYTFGGGTEVVVK
In test [2], B2 yielded a Kd of 118 nM and a kon of 20400 M⁻¹ s⁻¹.

The Kd is the concentration at which binding is half-saturated. Read a high Kd as a looser complex. What is called koff is a measure of how fast the partners let go of each other. Low readings indicate slow dissociation, high ones fast dissociation. A word on the kon: it is the second-order rate constant of association.
